Here are results for one molecule from PMC7714071, “Interaction of amyloid beta with humanin and acetylcholinesterase is modulated by ATP” (FEBS Open Bio, 2020).

Data set [1] deals with AChE-Aβ complex (H1299 cell-conditioned media). Kind of data set: ELISA, AChE found in a complex with Aβ in H1299 cell-conditioned media. It is filed as binding, human. Particulars: Fig. 5C,D. The procedure:
Human NSCLC cell lines, A549 (ATCC CCL‐185) and H1299 (ATCC CRL‐5803), were purchased from the American Type Culture Collection (ATCC, Manassas, VA, USA). Cells were seeded as we reported earlier in 5 mL HyClone Dulbecco's modified Eagle's medium/nutrient mixture F‐12 (DMEM/F12) (GE Healthcare Life Sciences, Pittsburgh, PA, USA), supplemented with 10% Fetalgro bovine growth serum (FBS; RMBIO, Missoula, MT, USA), 50 U·mL^−1 penicillin, and […] streptomycin (Invitrogen, Life Technologies, Carlsbad, CA, USA) in 25‐cm^2 tissue culture flasks, and allowed to grow overnight in an incubator at 37 °C, 95% humidity, and 5% CO2. The cells were counted after trypan blue staining, with a hemocytometer.
ELISAs were carried out as we previously reported. […] TBST was then used to wash the wells 4× before proceeding in one of two ways: (a) biotinylated samples were analyzed by adding 100 µL streptavidin–HRP conjugate in TBST (1 : 2500 dilution) to the samples followed by incubation for 3 h at RT on a shaker, or (b) samples without biotin were analyzed by adding 100 µL TBST containing the primary antibody as per the manufacturer's recommendation, incubating for 3 h at RT on a shaker, followed by washing the wells 4× with TBST. […] The reaction was stopped with 100 µL 2 M H2SO4 after incubating at RT for 0.5–15 min, resulting in a yellow color change, measured by absorbance at 450 nm. […]
For orientation: ELISA stands for enzyme-linked immunosorbent assay.

Another data set has as its system Aβ cytotoxicity. Particulars: versus Aβ aggregates alone; cited from earlier work. The source says:
Almost all types of cells produce amyloid beta (Aβ), a peptide well recognized for its role in the development and progression of different stages of Alzheimer's disease (AD). The Aβ peptide is ~ 4 kDa and derived from the sequential processing of the higher molecular weight amyloid precursor protein by two membrane‐bound endoproteases, β‐ and γ‐secretase. Different C‐terminal Aβ heterogeneity results from processing by γ‐secretase, where Aβ40 represents the most abundant isoform (~ 90%) as compared to Aβ42 (~ 10%). Self‐assembled Aβ40/42 peptides into amyloid fib ... || Soluble oligomers of proteins implicated in different diseases are primarily thought to be the main toxic form as opposed to the larger fibrillar assemblies. Aβ regions containing Tyr and Ser (H6DSGY10 and G25SNKG29) (Fig. 1) along with post‐translational modifications of these regions, have been implicated in misfolding, oligomerization, or fibril formation of Aβ [5, 10, 11, 16, 41]. […] Aβ proteins a ... || Acetylcholinesterase (AChE) is an enzyme known for its role in terminating acetylcholine‐mediated neurotransmission at the synaptic cleft. The majority of the cortical AChE in the Alzheimer's brain is mainly associated with the amyloid core of senile plaques. […]

B1: acetylcholinesterase (protein)
chain: EGREDAELLVTVRGGRLRGIRLKTPGGPVSAFLGIPFAEPPMGPRRFLPPEPKQPWSGVVDATTFQSVCYQYVDTLYPGFEGTEMWNPNRELSEDCLYLNVWTPYPRPTSPTPVLVWIYGGGFYSGASSLDVYDGRFLVQAERTVLVSMNYRVGAFGFLALPGSREAPGNVGLLDQRLALQWVQENVAAFGGDPTSVTLFGESAGAASVGMHLLSPPSRGLFHRAVLQSGAPNGPWATVGMGEARRRATQLAHLVGCPPGGTGGNDTELVACLRTRPAQVLVNHEWHVLPQESVFRFSFVPVVDGDFLSDTPEALINAGDFHGLQVLVGVVKDEGSYFLVYGAPGFSKDNESLISRAEFLAGVRVGVPQVSDLAAEAVVLHYTDWLHPEDPARLREALSDVVGDHNVVCPVAQLAGRLAAQGARVYAYVFEHRASTLSWPLWMGVPHGYEIEFIFGIPLDPSRNYTAEEKIFAQRLMRYWANFARTGDPNEPRDPKAPQWPPYTAGAQQYVSLDLRPLEVRRGLRAQACAFWNRFLPKLLSATDTLDEAERQWKAEFHRWSSYMVHWKNQFDHYSKQDRCSDL
Regarding B1, the “AChE detected in complex with Aβ” value in data set [1] is “No AChE was detected above background”. Also, the “toxicity of AChE-amyloid complexes” value in the data set with Aβ cytotoxicity is “Higher toxicity”.
